Assay results: paper PMC11076521

Target: MYC-tagged FTL wild type, P02792
Assay: co-IP; HeLa-FTH1 KO cells; anti-MYC IP of MYC-FTH1/FTL, immunoblot; 50 mM Tris-HCl pH 7.5, 150 mM NaCl, 0.5% Nonidet P40, 1 mM DTT; quantified relative to FTH1-WT, normalized to immunoprecipitated FTH1/FTL and NCOA4 input
Settings: remark: other sources report otherwise

MYC-tagged FTL wild type, P02792, sequence (P02792 whole entry): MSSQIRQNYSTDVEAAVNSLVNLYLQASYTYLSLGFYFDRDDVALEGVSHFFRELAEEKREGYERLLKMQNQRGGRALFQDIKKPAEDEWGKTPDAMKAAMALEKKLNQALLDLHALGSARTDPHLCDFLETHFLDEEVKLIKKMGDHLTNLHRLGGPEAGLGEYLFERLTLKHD

relative interaction by immunoprecipitation (% of FTH1-WT): 14%
B1: C-terminally HA-FLAG-tagged NCOA4, Q13772 1-614 (natural protein)
chain: MNTFQDQSGSSSNREPLLRCSDARRDLELAIGGVLRAEQQIKDNLREVKAQIHSCISRHLECLRSREVWLYEQVDLIYQLKEETLQQQAQQLYSLLGQFNCLTHQLECTQNKDLANQVSVCLERLGSLTLKPEDSTVLLFEADTITLRQTITTFGSLKTIQIPEHLMAHASSANIGPFLEKRGCISMPEQKSASGIVAVPFSEWLLGSKPASGYQAPYIPSTDPQDWLTQKQTLENSQTSSRACNFFNNVGGNLKGLENWLLKSEKSSYQKCNSHSTTSSFSIEMEKVGDQELPDQDEMDLSDWLVTPQESHKLRKPENGSRETSEKFKLLFQSYNVNDWLVKTDSCTNCQGNQPKGVEIENLGNLKCLNDHLEAKKPLSTPSMVTEDWLVQNHQDPCKVEEVCRANEPCTSFAECVCDENCEKEALYKWLLKKEGKDKNGMPVEPKPEPEKHKDSLNMWLCPRKEVIEQTKAPKAMTPSRIADSFQVIKNSPLSEWLIRPPYKEGSPKEVPGTEDRAGKQKFKSPMNTSWCSFNTADWVLPGKKMGNLSQLSSGEDKWLLRKKAQEVLLNSPLQEEHNFPPDHYGLPAVCDLFACMQLKVDKEKWLYRTPLQM
